“And” between values parts separate entries of the source, which are not always exact repeats. Identical values can stand only once.
B1: Pseudomonas putida KT2440 PobA (para-hydroxybenzoate-3-hydroxylase, PHBH), native, PP_3537, tagless, pobA_EC gene SEQ ID NO: 1 (Pseudomonas putida KT2440) (protein)
chain: MKTQVAIIGAGPSGLLLGQLLHKAGIDNIIVERQTAEYVLGRIRAGVLEQGTVDLLREAGVAERMDREGLVHEGVELLVGGRRQRLDLKALTGGKTVMVYGQTEVTRDLMQAREASGAPIIYSAANVQPHELKGEKPYLTFEKDGRVQRIDCDYIAGCDGFHGISRQSIPEGVLKQYERVYPFGWLGLLSDTPPVNHELIYAHHERGFALCSQRSQTRSRYYLQVPLQDRVEEWSDERFWDELKARLPAEVAADLVTGPALEKSIAPLRSLVVEPMQYGHLFLVGDAAHIVPPTGAKGLNLAASDVNYLYRILVKVYHEGRVDLLAQYSPLALRRVWKGERFSWFMTQLLHDFGSHKDAWDQKMQEADREYFLTSPAGLVNIAENYVGLPFEEVA
B2: Paenibacillus sp. JJ-1b PraI (para-hydroxybenzoate-3-hydroxylase, PHBH), BAH79107, tagless, praI_EC gene SEQ ID NO: 3 (Paenibacillus sp.) (protein)
chain: RTQVGIIGAGPAGLLLSHLLYLQGIESIIIENRTREEIEGTIRAGVLEQGTVDLMNQMGVGARMMKEGHFHEGFELRFNGRGHRINVHELTGGKYVTVYAQHEVIKDLVAARLQTGGQIHFNVGDVSLHDVDTSSPKIRFRPNKDGELQEIECDFIAGCDGFRGPSRPAIPQSVRKEYQKVYPFSWLGILVEAPPSAHELIYANHERGFALVSTRSPQIQRLYLQVDAQDHIDNWSDDRIWSELHARLETRDGFKLLEGPIFQKGIVSMRSFVCDPMQHGRLFLAGDAAHIVPPTGAKGLNLAAADVQVLARGLEAYYKAGKMEILNRCTEICLRRIWKAERFSWFMTTMLHRDQGHTPFERGIQLAELDYVTSSRAASTSLAENYIGLPMEF

What was measured:
Assay in all cases: purified protein, by the assay type
[1] = substrate: NC(=O)C1=CN([C@@H]2O[C@H](COP(=O)(O)OP(=O)(O)OC[C@H]3O[C@@H](n4cnc5c(N)ncnc54)[C@H](OP(=O)(O)O)[C@@H]3O)[C@@H](O)[C@H]2O)C=CC1
[2] = substrate: O=C(O)c1ccc(O)cc1
[3] = substrate: NC(=O)C1=CN([C@@H]2O[C@H](COP(=O)(O)OP(=O)(O)OC[C@H]3O[C@@H](n4cnc5c(N)ncnc54)[C@H](O)[C@@H]3O)[C@@H](O)[C@H]2O)C=CC1; settings: pH 8.0; 25.0 °C

Row | Protein | Km ([1]; other: NADPH varied, NADPH detection (340 nm), air-saturated, 200 μM 4-hydroxybenzoate, pH 8, 25° C.) [µM] | Km ([1]; other: NADPH varied, O2 detection (oxygraph), air-saturated, 200 μM 4-hydroxybenzoate, pH 8, 25° C.) [µM] | Km ([2]; other: NADPH as reducing equivalent, NADPH detection (340 nm), air-saturated, 300 μM NAD(P)H, pH 8, 25° C.) [µM] | Km ([2]; other: NADPH as reducing equivalent, O2 detection (oxygraph), air-saturated, 300 μM NAD(P)H, pH 8, 25° C.) [µM] | Km ([1]; pH 8.0, 25.0 °C) | Km ([2]; pH 8.0, 25.0 °C) | Km [3]
1 | B1 | 43 ± 3 | 66 ± 6 | 18 ± 2 | 21 ± 1 |  |  | 
2 | B2 |  |  |  |  | 27 ± 1 µM and 33 ± 2 µM | 16 ± 1 µM and 19 ± 2 µM and 18 ± 1 µM | 49 ± 3 µM and 46 ± 4 µM

Reference: patent publication US12606852B2, “Conversion of lignin-derived monomers to muconate by engineered pseudomonas” (Alliance for Sustainable Energy, LLC, priority 2021, dated 2026)
